Common to all, as to test: cell-based or functional assay
Assay [1] concerns the target HIV-1 Env of isolate APV_17, clade B (HIV-1).
Assay [2] concerns the target HIV-1 envelope glycoprotein (Env) of isolate MGRM-C-013 (HIV-1).
Assay [3] deals with HIV-1 MGRM-G-004 Env (pseudovirus) (HIV-1).
The target in assay [4] is aMLV envelope on pseudovirus (negative control).
In assay [5] the target is HIV-1 MGRM-AG-003 Env (pseudovirus) (HIV-1).
For assay [6], the target named is HIV-1 Env of isolate MGRM-Chronic-B-001, clade B (HIV-1).
The target of assay [7] is HIV-1 Env of pseudovirus MGRM-G-027 (HIV-1).
The target in assay [8] is HIV-1 Env of isolate 92UG001 (clade D pseudovirus) (HIV-1).
Assay [9] deals with HIV-1 Env of isolate 92UG037 (clade A pseudovirus) (HIV-1).
The target in assay [10] is HIV-1 MGRM-AG-005 Env (pseudovirus) (HIV-1).
The target in assay [11] is HIV-1 Env of isolate 92TH021 (CRF01_AE) (HIV-1).
Assay [12] addresses HIV-1 Env of isolate APV_13, clade B (HIV-1).
The target of assay [13] is HIV-1 Env of pseudovirus MGRM-G-019 (HIV-1).
Assay [14] has as its target HIV-1 Env of isolate MGRM-D-019 (clade D pseudovirus) (HIV-1).
Assay [15] has as its target HIV-1 Env of isolate 93IN905 (Clade C) (HIV-1).
Assay [16] addresses HIV-1 Env of pseudovirus MGRM-F1-021 (clade F) (HIV-1).

What is called IC50 is the point on the concentration scale where inhibition reaches its midpoint.

Sequence of 1443_C16 (PG16) (TCN-116) (antibody) (VH): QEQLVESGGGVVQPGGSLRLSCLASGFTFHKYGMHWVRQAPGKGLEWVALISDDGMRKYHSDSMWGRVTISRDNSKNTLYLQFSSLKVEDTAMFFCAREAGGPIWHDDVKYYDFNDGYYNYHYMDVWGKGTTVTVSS
Sequence of 1443_C16 (PG16) (TCN-116) (antibody) (VL): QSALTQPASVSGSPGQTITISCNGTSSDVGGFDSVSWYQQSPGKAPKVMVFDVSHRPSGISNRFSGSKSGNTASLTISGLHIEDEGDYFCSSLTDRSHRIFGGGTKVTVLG

As to 1443_C16 (PG16) (TCN-116) (antibody), the IC50 (µg/ml), pseudovirus neutralization in assay [1] was 24.8 µg/mL; in [2], over 50 µg/mL; in assay [3], over 50 µg/mL; in [5], over 50 µg/mL; in assay [6], over 50 µg/mL; in assay [7] it was 0.01 µg/mL. The IC50 (µg/ml), pseudovirus neutralization was 0.01 µg/mL in assay [9], over 50 µg/mL in assay [10], over 50 µg/mL in assay [12] and 1.21 µg/mL in [13]. For the same substance, the neutralization IC50 in assay [4] was over 50 µg/mL. The values for the IC50, pseudovirus neutralization in [8] and in [14] were over 50 µg/mL and 0.01 µg/mL, respectively. The IC90 (neutralization of pseudovirus) is 23.4 µg/mL in assay [11] and over 50 µg/mL in assay [15]. Moreover, the IC50 in assay [16] was over 50 µg/mL.

4E10 (antibody): the IC50 (µg/ml), pseudovirus neutralization stood at 10.5 µg/mL in assay [1]; 2.1 µg/mL in assay [2]; 1.47 µg/mL in assay [3]; 0.64 µg/mL in assay [5]; 1.46 µg/mL in assay [6]; 1.19 µg/mL in assay [7]. Moreover, the IC50 (µg/ml), pseudovirus neutralization came out at 8.84 µg/mL in [9], 2.13 µg/mL in assay [10], 7.33 µg/mL in [12] and 6.53 µg/mL in assay [13]. For the same substance, in [4], the neutralization IC50 was over 50 µg/mL. Moreover, the values for the IC50, pseudovirus neutralization in assay [8] and in assay [14] were 13.6 µg/mL and 0.04 µg/mL, respectively. The results for the IC90 (neutralization of pseudovirus) in assay [11] and in [15] were 23.5 µg/mL and 12.8 µg/mL, respectively. The same substance had a 50% inhibitory concentration (IC50) in [16] of 1.87 µg/mL.

Consider 2F5 (antibody), for which the IC50 (µg/ml), pseudovirus neutralization was 4.61 µg/mL in assay [1]; 18.4 µg/mL in [2]; over 50 µg/mL in assay [3]; 0.14 µg/mL in assay [5]; 0.55 µg/mL in [6]; 0.28 µg/mL in assay [7]. In addition, the IC50 (µg/ml), pseudovirus neutralization is 3.24 µg/mL in assay [9], over 50 µg/mL in assay [10], 3.81 µg/mL in assay [12] and over 50 µg/mL in assay [13]. In addition, the neutralization IC50 in assay [4] is over 50 µg/mL. Also, the IC50, pseudovirus neutralization in [8] amounted to 13 µg/mL; in assay [14], 0.14 µg/mL. The IC90 (neutralization of pseudovirus) was 18.8 µg/mL in [11] and over 50 µg/mL in assay [15]. The same substance showed an IC50 in assay [16] of 1.37 µg/mL.

Turning to 2G12 (antibody), the IC50 (µg/ml), pseudovirus neutralization in [1] was over 50 µg/mL; in assay [2], over 50 µg/mL; in assay [3] it was over 50 µg/mL; in assay [5], over 50 µg/mL; in [6] it was 0.08 µg/mL; in assay [7], over 50 µg/mL. In addition, the IC50 (µg/ml), pseudovirus neutralization was 45.2 µg/mL in assay [9], over 50 µg/mL in [10], 9.24 µg/mL in assay [12] and 31 µg/mL in assay [13]. Also, the neutralization IC50 in assay [4] is over 50 µg/mL. The IC50, pseudovirus neutralization in assay [8] and in assay [14] was over 50 µg/mL each time. Moreover, the IC90 (neutralization of pseudovirus) in [11] and in [15] was over 50 µg/mL each time. This substance also displayed an IC50 in [16] of 14.1 µg/mL.

The record behind these values is US20240132578A1.
